The target of experiment [1] is soluble Her2 (Her2 extracellular ligand binding domain, residues 1-653, fused to the FLAG sequence) (UniProt P04626). Description: EIA, plate coated with sHer2, control IgG at 10 ng/ml, absorbance at 405 nm.
Experiment [2] concerns the target soluble Her3 (Her3 extracellular domain) (UniProt P21860). Description: EIA, plate coated with sHer3, control IgG at 100 µg/ml, absorbance at 405 nm.
The target in experiment [3] is soluble Her4 (Her4 receptor extracellular domain, residues 1 to 639) (human) (UniProt Q15303). Description: EIA, plate coated with sHer4, control IgG at 100 µg/ml, absorbance at 405 nm.
Chain of UniProt Q15303 (Q15303 other isoform, or with tags, fused parts or gaps limits assumed, form in doubt): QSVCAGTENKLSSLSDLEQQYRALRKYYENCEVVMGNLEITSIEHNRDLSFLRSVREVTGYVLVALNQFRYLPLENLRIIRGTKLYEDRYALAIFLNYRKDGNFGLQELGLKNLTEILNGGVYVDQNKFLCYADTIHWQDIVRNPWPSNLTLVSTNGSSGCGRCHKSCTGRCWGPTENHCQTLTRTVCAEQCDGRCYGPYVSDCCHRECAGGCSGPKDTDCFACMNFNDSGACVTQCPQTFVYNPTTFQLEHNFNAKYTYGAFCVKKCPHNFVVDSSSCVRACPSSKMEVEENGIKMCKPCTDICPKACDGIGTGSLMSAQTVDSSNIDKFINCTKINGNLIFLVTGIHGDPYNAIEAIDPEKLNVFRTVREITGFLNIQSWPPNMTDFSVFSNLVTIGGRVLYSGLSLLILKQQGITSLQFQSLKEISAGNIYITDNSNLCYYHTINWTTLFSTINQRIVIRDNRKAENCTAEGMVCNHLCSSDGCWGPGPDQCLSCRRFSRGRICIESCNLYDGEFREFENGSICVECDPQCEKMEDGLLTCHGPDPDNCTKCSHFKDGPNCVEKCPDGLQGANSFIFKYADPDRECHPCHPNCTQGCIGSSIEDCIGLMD

Chain of UniProt P21860 (P21860 20-643 limits assumed): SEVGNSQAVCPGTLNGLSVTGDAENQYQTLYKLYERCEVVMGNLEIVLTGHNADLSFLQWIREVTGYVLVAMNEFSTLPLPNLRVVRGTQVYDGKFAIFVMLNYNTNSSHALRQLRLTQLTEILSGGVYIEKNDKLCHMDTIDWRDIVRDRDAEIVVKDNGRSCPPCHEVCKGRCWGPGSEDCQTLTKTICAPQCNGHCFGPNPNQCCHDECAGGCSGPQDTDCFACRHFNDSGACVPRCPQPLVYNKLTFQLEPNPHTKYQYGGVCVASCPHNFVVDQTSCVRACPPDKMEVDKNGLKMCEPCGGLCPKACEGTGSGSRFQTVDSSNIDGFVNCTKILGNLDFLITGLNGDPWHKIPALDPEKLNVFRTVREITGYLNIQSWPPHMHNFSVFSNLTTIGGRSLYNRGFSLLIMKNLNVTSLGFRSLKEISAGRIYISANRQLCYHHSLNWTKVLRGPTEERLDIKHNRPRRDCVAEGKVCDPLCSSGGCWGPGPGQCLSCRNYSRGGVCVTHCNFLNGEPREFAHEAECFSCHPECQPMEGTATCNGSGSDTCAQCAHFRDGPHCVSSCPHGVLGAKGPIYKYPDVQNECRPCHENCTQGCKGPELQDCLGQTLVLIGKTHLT

In the case of Mouse IgG (antibody), the O.D. of 10 ng/ml in experiment [1] amounted to 0.09 O.D. For the same substance, the O.D. of 100 ug/ml in experiment [2] came to 1.2 O.D; in experiment [3] it was 0.9 O.D.

For the origin of these results see patent US8444990.
